Experimental data as given in US20160122430A1 (AbbVie / Abbott, published 2016).
Residue numbers refer to the chain shown, from its start. In names and notes the source's numbering stands. Blank lines part the entries; values can stand above or below the binder they belong to.

How the values were obtained:
human CS1 (HuCS1) [1] = target: T1, human CS1 (HuCS1) (human, UniProt Q9NQ25 23-335); assay: flow cytometry on 293s cells transfected with human CS1
T1 construct: also called FL-HuCS1; SLAMF7

human CS1 (HuCS1) [2] = target: T1, human CS1 (HuCS1); assay: flow cytometry on L-363 cells; maximum fluorescent value at any tested concentration
Method: (§1) L-363 cells were incubated with different amounts of test antibody on ice for 30 min. Cells were washed three times with PBS+1% FBS. A PE-conjugated goat anti-human Fc antibody was added to the cells and incubated for 30 min on ice. Cells were washed three times with PBS+1% FBS, and binding was quantitated by flow cytometry.

human CS1 (HuCS1) [3] = target: T1, human CS1 (HuCS1); assay: flow cytometry on L-363 cells, PE goat anti-human Fc detection
Method: as §1

human CS1 (HuCS1) [4] = target: T1, human CS1 (HuCS1); assay: flow cytometry on L-363 cells; GeoMean (max) relative to elotuzumab
Method: as §1

human CS1 ECD-huIgG1 = target: T2, human CS1 ECD-huIgG1 (human, UniProt Q9NQ25 23-226); assay: hybridoma screen of Example 1 (ELISA on ECD-huIgG1 fusions, flow cytometry on OPM-2 cells); member named in Table 5
T2 construct: Its preparation is not described; also called HuCS1Fc; HuCS1-Fc; not shown: constant region of human IgG1 (huIgG1 Fc)
Method: Specificity of antibodies secreted by hybridomas was determined by binding to human CS1 ECD-huIgG1 and CmCS1 ECD-huIgG1, and not to negative control CLL1 ECD-huIgG1 by ELISA. […] Hybridoma supernatants were allowed to bind to the proteins and detected with an HRP conjugated donkey anti mouse IgG (H+L) antibody. Hybridomas that recognized both human and cynomolgus but not CLL fusion proteins were further tested for binding to the huCS1 molecule on an endogenously expressing OPM-2 cells using standard flow cytometry protocols. Briefly, OPM-2 cells were incubated with hybridoma supernatants for 30 minutes on ice. After extensive washing, cells were incubated with phycoerythrin conjugated goat anti mouse IgG specific antibodies for 30 minutes on ice. Cells were washed again and analyzed on a Becton Dickinson FACSCalibur for the presence of cell surface bound antibodies.

human CS1 (HuCS1) [5] = target: T1, human CS1 (HuCS1); assay: FACS, binding relative to Hu34C3; cells not given

GeoMean (max) (human CS1 (HuCS1) [2]): 17.5
EC50 (human CS1 (HuCS1) [3]): 35.9 nM
% of Elotuzumab (human CS1 (HuCS1) [4]): 100%
B2: elotuzumab (antibody, IgG1, V domains shown)
VH: EVQLVESGGGLVQPGGSLRLSCAASGFDFSRYWMSWVRQAPGKGLEWIGEINPDSSTINYAPSLKDKFIISRDNAKNSLYLQMNSLRAEDTAVYYCARPDGNYWYFDVWGQGTLVTVSS
VL: DIQMTQSPSSLSASVGDRVTITCKASQDVGIAVAWYQQKPGKVPKLLIYWASTRHTGVPDRFSGSGSGTDFTLTISSLQPEDVATYYCQQYSSYPYTFGQGTKVEIKR
notes: also called HuLuc63

binding result (human CS1 ECD-huIgG1): binds
B6: CS1.AD159.14C11 (antibody, V domains shown)
VH: EVKLVESEGGLVQPGSSMKLSCTASGFTFSDYYMAWVRQVPEKGLEWVASINYDGSSTYYLDSLKSRFIISRDNAKNILYLQMSGLKSEDTATYSCARDRGFYFDYWGQGTTLTVSS
VL: DVVMTQTPLSLPVSLGDQASISCRSSQSLVHRNGNTYLHWYLQKPGQSPKLLIYKVSNRFSGVPDRFSGSGSGTDFTLKISRVEAEDLGVYFCSQSTHVPPYTFGGGTKLEIK
notes: Murine hybridoma antibody; also called Mu14C11

binding result (human CS1 ECD-huIgG1): binds
B7: CS1.AD159.31D2 (antibody, V domains shown)
VH: B6 VH with S50D, S56G, Y80C, G85S, S95Y, F102Y
VL: B6 VL with R32S, Y102F
notes: Murine hybridoma antibody; also called Mu31D2

binding result (human CS1 ECD-huIgG1): binds
B9: CS1.AD159.12D10 (antibody, V domains shown)
VH: B6 VH with Y33F, S56N, Y60F, G85S, S95Y
VL: B6 VL with S25F, P100R, K113R
notes: Murine hybridoma antibody; also called Mu12D10

The remaining lines, values behind:

B1: HuCS1.34C3 (antibody, human IgG1, kappa, V domains shown)
VH: EVQLVESGGGLVQPGGSLRLSCAASGFTFSDYYMAWVRQAPGKGLEWVASINYDGSSTYYVDSVKGRFTISRDNAKNSLYLQMNSLRAEDTAVYYCARDRGYYFDYWGQGTTVTVSS
VL: DVVMTQTPLSLSVTPGQPASISCRSSQSLVHSNGNTYLHWYLQKPGQSPQLLIYKVSNRFSGVPDRFSGSGSGTDFTLKISRVEAEDVGVYFCSQSTHVPPFTFGGGTKVEIKR
notes: Humanized IgG1; also called Hu34C3
concentration at which 80% of maximal binding occurred (human CS1 (HuCS1) [1]): 10 µg/mL
GeoMean (max) (human CS1 (HuCS1) [2]): 43.5
EC50 (human CS1 (HuCS1) [3]): 2.5 nM
% of Elotuzumab (human CS1 (HuCS1) [4]): 249%

B3: CS1.AD159.27A12 (antibody, V domains shown)
VH: B6 VH with S50E, G85N, S95Y
VL: B6 VL with R32N
notes: Murine hybridoma antibody; also called Mu27A12
binding result (human CS1 ECD-huIgG1): binds

B4: Hu34C3 S55E (antibody, V domains shown)
VH: B1 VH with S56E
VL: B6 VL with P12S, S14T, L15P, D17Q, Q18P, R32S, K50Q, L88V, Y102F, L110V
% Binding (human CS1 (HuCS1) [5]): 125%

B5: CS1.AD159.34C3 (antibody, V domains shown)
VH: B6 VH with Y80F, S84N, G85S, S95Y, F102Y
VL: B6 VL with R32S, Y102F
notes: Murine hybridoma antibody; also called Mu34C3
binding result (human CS1 ECD-huIgG1): binds

B8: HuCS1.31D2.2 (antibody, V domains shown)
VH: B1 VH with S50D, S56G, V61L, V64L, G66S, T112L
VL: B6 VL with T7S, S14T, L15P, D17E, Q18P, R32S, K50Q, L88V, Y102F, L110V
notes: Humanized antibody; It has a human Fc (detected with anti-human Fc); also called Hu31D2
GeoMean (max) (human CS1 (HuCS1) [2]): 28
EC50 (human CS1 (HuCS1) [3]): 3.1 nM
% of Elotuzumab (human CS1 (HuCS1) [4]): 160%

B10: HuCS1.27A12 (antibody, V domains shown)
VH: B1 VH with S50E, Y102F
VL: B6 VL with P12S, S14T, L15P, D17Q, Q18P, R32N, K50Q, L88V, L110V
notes: Humanized antibody; It has a human Fc (detected with anti-human Fc); also called Hu27A12
GeoMean (max) (human CS1 (HuCS1) [2]): 24.8
EC50 (human CS1 (HuCS1) [3]): 4.7 nM
% of Elotuzumab (human CS1 (HuCS1) [4]): 142%

B11: Hu34C3 N30L (antibody, V domains shown)
VH: B1 VH
VL: DVVMTQTPLSLSVTPGQPASISCRSSQSLVHSNGLTYLHWYLQKPGQSPQLLIYKVSNRFSGVPDRFSGSGSGTDFTLKISRVEAEDVGVYFCSQSTHVPPFTFGGGTKVEIK
% Binding (human CS1 (HuCS1) [5]): 128%

B12: Hu34C3 S55E/N30L (antibody, V domains shown)
VH: B1 VH with S56E
VL: B11 VL
notes: Double mutant of Hu34C3
% Binding (human CS1 (HuCS1) [5]): 134%
